Data published in patent US12398178 (dated 2025).

Columns and labels:
Compound 2 = assay: SPR (Biacore)
[1] = target: i,i+7 non-binder Linker 9; assay: fluorescence polarization; xStAx41 derivative
i,i+7 binder Linker 9 = assay: fluorescence polarization; xStAx41 derivative
i,i+7 binder Linker 3 = assay: fluorescence polarization; xStAx41 derivative
i,i+7 binder Linker 1 = assay: fluorescence polarization; xStAx41 derivative
[2] = target: i,i+7 non-binder Linker 8; assay: fluorescence polarization; xStAx41 derivative
[3] = target: i,i+7 non-binder Linker 2; assay: fluorescence polarization; xStAx41 derivative
i,i+7 binder Linker 8 = assay: fluorescence polarization; xStAx41 derivative
i,i+7 binder Linker 5 = assay: fluorescence polarization; xStAx41 derivative
[4] = target: i,i+4 non-binder Linker 5; assay: fluorescence polarization; xStAx41 derivative
[5] = target: i,i+4 non-binder Linker 2; assay: fluorescence polarization; xStAx41 derivative
i,i+7 binder Linker 2 = assay: fluorescence polarization; xStAx41 derivative
[6] = target: i,i+4 non-binder Linker 9; assay: fluorescence polarization; xStAx41 derivative
i,i+7 binder Linker 7 = assay: fluorescence polarization; xStAx41 derivative
[7] = target: i,i+4 non-binder Linker 7; assay: fluorescence polarization; xStAx41 derivative
[8] = target: i,i+4 non-binder Linker 6; assay: fluorescence polarization; xStAx41 derivative
i,i+4 binder Linker 7 = assay: fluorescence polarization; xStAx41 derivative
i,i+4 binder Linker 8 = assay: fluorescence polarization; xStAx41 derivative
[9] = target: i,i+4 non-binder Linker 4; assay: fluorescence polarization; xStAx41 derivative
i,i+7 binder Linker 6 = assay: fluorescence polarization; xStAx41 derivative
[10] = target: i,i+7 non-binder Linker 3; assay: fluorescence polarization; xStAx41 derivative
[11] = target: i,i+4 non-binder Linker 8; assay: fluorescence polarization; xStAx41 derivative
[12] = target: i,i+7 non-binder Linker 5; assay: fluorescence polarization; xStAx41 derivative
[13] = target: i,i+7 non-binder Linker 1; assay: fluorescence polarization; xStAx41 derivative
i,i+4 binder Linker 5 = assay: fluorescence polarization; xStAx41 derivative
i,i+4 binder Linker 9 = assay: fluorescence polarization; xStAx41 derivative
[14] = target: i,i+7 non-binder Linker 7; assay: fluorescence polarization; xStAx41 derivative
[15] = target: i,i+4 non-binder Linker 1; assay: fluorescence polarization; xStAx41 derivative
i,i+7 binder Linker 4 = assay: fluorescence polarization; xStAx41 derivative
i,i+4 binder Linker 4 = assay: fluorescence polarization; xStAx41 derivative
i,i+4 binder Linker 6 = assay: fluorescence polarization; xStAx41 derivative
[16] = target: i,i+4 non-binder Linker 3; assay: fluorescence polarization; xStAx41 derivative
[17] = target: i,i+7 non-binder Linker 4; assay: fluorescence polarization; xStAx41 derivative
i,i+4 binder Linker 2 = assay: fluorescence polarization; xStAx41 derivative
[18] = target: i,i+7 non-binder Linker 6; assay: fluorescence polarization; xStAx41 derivative
i,i+4 binder Linker 1 = assay: fluorescence polarization; xStAx41 derivative
i,i+4 binder Linker 3 = assay: fluorescence polarization; xStAx41 derivative

B1: beta-Catenin (other)
chain: HAVVNLINYQDDAELATRAIPELTKLLNDEDQVVVNKAAVMVHQLSKKEASRHAIMRSPQMVSAIVRTMQNTNDVETARCTAGTLHNLSHHREGLLAIFKSGGIPALVKMLGSPVDSVLFYAITTLHNLLLHQEGAKMAVRLAGGLQKMVALLNKTNVKFLAITTDCLQILAYGNQESKLIILASGGPQALVNIMRTYTYEKLLWTTSRVLKVLSVCSSNKPAIVEAGGMQALGLHLTDPSQRLVQNCLWTLRNLSDAATKQEGMEGLLGTLVQLLGSDDINVVTCAAGILSNLTCNNYKNKMMVCQVGGIEALVRTVLRAGDREDITEPAICALRHLTSRHQEAEMAQNAVRLHYGLPVVVKLLHPPSHWPLIKATVGLIRNLALCPANHAPLREQGAIPRLVQLLVRAHQDTQRRTSMGGTQQQFVEGVRMEEIVEGCTGALHILARDVHNRIVIRGLNTIPLFVQLLYSPIENIQRVAAGVLCELAQDKEAAEAIEAEGATAPLTELLHSRNEGVATYAAAVLFRMSED
Kd (Compound 2): 0.45 µM

B2: beta-catenin (other)
chain: ATQADLMELDMAMEPDRKAAVSHWQQQSYLDSGIHSGATTTAPSLSGKGNPEEEDVDTSQVLYEWEQGFSQSFTQEQVADIDGQYAMTRAQRVRAAMFPETLDEGMQIPSTQFDAAHPTNVQRLAEPSQMLKHAVVNLINYQDDAELATRAIPELTKLLNDEDQVVVNKAAVMVHQLSKKEASRHAIMRSPQMVSAIVRTMQNTNDVETARCTAGTLHNLSHHREGLLAIFKSGGIPALVKMLGSPVDSVLFYAITTLHNLLLHQEGAKMAVRLAGGLQKMVALLNKTNVKFLAITTDCLQILAYGNQESKLIILASGGPQALVNIMRTYTYEKLLWTTSRVLKVLSVCSSNKPAIVEAGGMQALGLHLTDPSQRLVQNCLWTLRNLSDAATKQEGMEGLLGTLVQLLGSDDINVVTCAAGILSNLTCNNYKNKMMVCQVGGIEALVRTVLRAGDREDITEPAICALRHLTSRHQEAEMAQNAVRLHYGLPVVVKLLHPPSHWPLIKATVGLIRNLALCPANHAPLREQGAIPRLVQLLVRAHQDTQRRTSMGGTQQQFVEGVRMEEIVEGCTGALHILARDVHNRIVIRGLNTIPLFVQLLYSPIENIQRVAAGVLCELAQDKEAAEAIEAEGATAPLTELLHSRNEGVATYAAAVLFRMSEDKPQDYKKRLSVELTSSLFRTEPMAWNETADLGLDIGAQGEPLGYRQDDPSYRSFHSGGYGQDALGMDPMMEHEMGGHHPGADYPVDGLPDLGHAQDLMDGLPPGDSNQLAWFDTDL
Kd [1]: > 50 µM
Kd (i,i+7 binder Linker 9): 10.5 µM
Kd (i,i+7 binder Linker 3): 25.4 µM
Kd (i,i+7 binder Linker 1): 2.9 µM
Kd [2]: > 50 µM
Kd [3]: > 50 µM
Kd (i,i+7 binder Linker 8): 16.3 µM
Kd (i,i+7 binder Linker 5): 14.6 µM
Kd [4]: > 50 µM
Kd [5]: > 50 µM
Kd (i,i+7 binder Linker 2): > 50 µM
Kd [6]: > 50 µM
Kd (i,i+7 binder Linker 7): 0.6 µM
Kd [7]: > 50 µM
Kd [8]: > 50 µM
Kd (i,i+4 binder Linker 7): 7.8 µM
Kd (i,i+4 binder Linker 8): 28.7 µM
Kd [9]: > 50 µM
Kd (i,i+7 binder Linker 6): 5.3 µM
Kd [10]: > 50 µM
Kd [11]: > 50 µM
Kd [12]: > 50 µM
Kd [13]: > 50 µM
Kd (i,i+4 binder Linker 5): 8.6 µM
Kd (i,i+4 binder Linker 9): 2.4 µM
Kd [14]: > 50 µM
Kd [15]: > 50 µM
Kd (i,i+7 binder Linker 4): 8.7 µM
Kd (i,i+4 binder Linker 4): 10.1 µM
Kd (i,i+4 binder Linker 6): 5.6 µM
Kd [16]: > 50 µM
Kd [17]: > 50 µM
Kd (i,i+4 binder Linker 2): 3.1 µM
Kd [18]: > 50 µM
Kd (i,i+4 binder Linker 1): > 50 µM
Kd (i,i+4 binder Linker 3): 7.1 µM
